Experimental data as given in patent US20190282704A1.

What was measured:
[1] = target: wildtype feline IL-31 (Feline_IL31_wildtype) (feline)
[2] = target: canine IL-31 (Canine_IL31) (canine); assay: SPR (Biacore), immobilised IL-31, 1:1 fit
[3] = target: wildtype feline IL-31 (Feline_IL31_wildtype) (feline); assay: SPR (Biacore), immobilised IL-31, 1:1 fit
[4] = target: feline IL-31 15H05 mutant (Feline_IL31_15H05 mutant) (feline); assay: indirect ELISA, coated IL-31
[5] = target: wildtype feline IL-31 (Feline_IL31_wildtype) (feline); assay: indirect ELISA, coated IL-31

canine IL-31 (Canine_IL31) (canine), sequence (chain, as listed by the source limits assumed, form in doubt): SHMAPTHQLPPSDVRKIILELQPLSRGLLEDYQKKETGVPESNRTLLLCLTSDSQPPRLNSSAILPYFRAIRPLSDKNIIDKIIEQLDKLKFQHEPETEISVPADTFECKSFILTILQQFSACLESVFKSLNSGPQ
feline IL-31 15H05 mutant (Feline_IL31_15H05 mutant) (feline), sequence (chain, as listed by the source mutant limits assumed, form in doubt): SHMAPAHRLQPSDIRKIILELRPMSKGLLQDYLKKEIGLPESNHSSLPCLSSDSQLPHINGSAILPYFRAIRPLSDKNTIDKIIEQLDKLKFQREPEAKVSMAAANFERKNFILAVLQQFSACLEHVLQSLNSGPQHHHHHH
wildtype feline IL-31 (Feline_IL31_wildtype) (feline), sequence (chain, as listed by the source limits assumed, form in doubt): as the sequence (chain, as listed by the source mutant limits assumed, form in doubt) above, with A103P, A105D counted along it

B1: Feline 11E12 1.2 (antibody, V domains shown)
VH: QVLLVQSGAEVKKPGASVKIFCKASGYSFTYYDINWLRQAPEQGLEWMGWIFPGDGGTKYNETFKGRLTLTADTSTNTVYMELSSLRSADTAMYYCARGGTSVIRDAMDYWGQGALVTVSS
VL: EVVLTQSSAFLSRTLKEKATITCRASESVDNYGISFMHWYQQKPNQAPKLLVKRASNLESGAPSRFSGSGSGTDFTLTISSPEPEDAATYYCQQSNKDPLTFGQGT
B1 was tested, and the IC50, inhibition of feline IL-31-induced STAT3 phosphorylation, canine DH82 cells [1] was > 100 µg/mL and the IC50, inhibition of feline IL-31-induced STAT3 phosphorylation, feline FCWF4 cells [1] was > 100 µg/mL.

B2: Feline 11E12 1.1 FW2 (antibody, V domains shown)
VH: QVLLVQSGAEVKKPGASVKIFCKASGYSFTYYDINWLRQAPEQGLEWMGWIFPGDGGTKYNETFKGRLTLTADTSTNTVYMELSSLRSADTAMYYCARGGTSVIRDAMDYWGQGALVTVSS
VL: EIQMTQSPSSLSASPGDRVTITCRASESVDNYGISFMHWYQQKPGQPPKLLIYRASNLESGVPSRFSGSGSGTDFTLTISSLEPEDAATYYCQQSNKDPLTFGQGT
With B2 the Kd [2] was 7.02 nM, the koff [2] was 0.000318 s⁻¹ and the kon [2] was 45200 M⁻¹ s⁻¹. It also gave a Kd [3] of 0.75 nM, a koff [3] of 0.000639 s⁻¹ and a kon [3] of 852000 M⁻¹ s⁻¹. It also gave an IC50, inhibition of feline IL-31-induced STAT3 phosphorylation, canine DH82 cells [1] of 5.66 µg/mL and an IC50, inhibition of feline IL-31-induced STAT3 phosphorylation, feline FCWF4 cells [1] of 4.38 µg/mL.

B3: ZTS-927 (antibody)
heavy: QVLLVQSGAEVRTPGASVKIFCKASGYSFTSYTIHWLRQAPAQGLEWMGNINPTSGYTENNQRFKDRLTLTADTSTNTAYMELSSLRSADTAMYYCARWGFKYDGEWSFDVWGAGTTVTVSSASTTAPSVFPLAPSCGTTSGATVALACLVLGYFPEPVTVSWNSGALTSGVHTFPAVLQASGLYSLSSMVTVPSSRWLSDTFTCNVAHPPSNTKVDKTVRKTDHPPGPKPCDCPKCPPPEMLGGPSIFIFPPKPKDTLSISRTPEVTCLVVDLGPDDSDVQITWFVDNTQVYTAKTSPREEQFNSTYRVVSVLPILHQDWLKGKEFKCKVNSKSLPSPIERTISKAKGQPHEPQVYVLPPAQEELSRNKVSVTCLIKSFHPPDIAVEWEITGQPEPENNYRTTPPQLDSDGTYFVYSKLSVDRSHWQRGNTYTCSVSHEALHSHHTQKSLTQSPGK
light: EIQMTQSPSSLSASPGDRVTITCRASQGISIWLSWYQQKPGNIPKVLINKASNLHIGVPSRFSGSGSGTDFTLTISSLEPEDAATYYCLQSQTYPLTFGGGTKLEIKRSDAQPSVFLFQPSLDELHTGSASIVCILNDFYPKEVNVKWKVDGVVQNKGIQESTTEQNSKDSTYSLSSTLTMSSTEYQSHEKFSCEVTHKSLASTLVKSFQRSECQRE
With B3 the Kd [3] was 0.614 nM, the koff [3] was 2.3e-05 s⁻¹ and the kon [3] was 37400 M⁻¹ s⁻¹. It also gave an IC50, inhibition of feline IL-31-induced STAT3 phosphorylation, canine DH82 cells [1] of 1.57 µg/mL and an IC50, inhibition of feline IL-31-induced STAT3 phosphorylation, feline FCWF4 cells [1] of 5.26 µg/mL.

B4: mouse: feline 11E12 chimera (antibody)
heavy: QVQLQQSGAELVKPGASVKLSCKASGYTFKYYDINWVRQRPEQGLEWIGWIFPGDGGTKYNETFKGKATLTTDKSSSTAYMQLSRLTSEDSAVYFCARGGTSVIRDAMDYWGQGTSVTVSSASTTAPSVFPLAPSCGTTSGATVALACLVLGYFPEPVTVSWNSGALTSGVHTFPAVLQASGLYSLSSMVTVPSSRWLSDTFTCNVAHPPSNTKVDKTVRKTDHPPGPKPCDCPKCPPPEAAGAPSIFIFPPKPKDTLSISRTPEVTCLVVDLGPDDSDVQITWFVDNTQVYTAKTSPREEQFNSTYRVVSVLPILHQDWLKGKEFKCKVNSKSLPSPIERTISKAKGQPHEPQVYVLPPAQEELSRNKVSVTCLIKSFHPPDIAVEWEITGQPEPENNYRTTPPQLDSDGTYFVYSKLSVDRSHWQRGNTYTCSVSHEALHSHHTQKSLTQSPGK
light: DIVLTQSPASLAVSLGQRATISCRASESVDNYGISFMHWYQQKPGQPPKLLIYRASNLESGIPARFSGSGSRTDFTLTINPVETDDVATYYCQQSNKDPLTFGAGTKLELKRSDAQPSVFLFQPSLDELHTGSASIVCILNDFYPKEVNVKWKVDGVVQNKGIQESTTEQNSKDSTYSLSSTLTMSSTEYQSHEKFSCEVTHKSLASTLVKSFQRSECQRE
B4 gave a Kd [2] of 0.000127 nM, a koff [2] of 8.7e-08 s⁻¹ and a kon [2] of 684000 M⁻¹ s⁻¹. For the same binder, the Kd [3] was 0.13 nM, the koff [3] was 5.06e-05 s⁻¹ and the kon [3] was 388000 M⁻¹ s⁻¹. For the same binder, the IC50, inhibition of feline IL-31-induced STAT3 phosphorylation, canine DH82 cells [1] was 4.4 µg/mL and the IC50, inhibition of feline IL-31-induced STAT3 phosphorylation, feline FCWF4 cells [1] was 3.45 µg/mL.

B5: mouse: canine 11E12 chimera (antibody)
heavy: QVQLQQSGAELVKPGASVKLSCKASGYTFKYYDINWVRQRPEQGLEWIGWIFPGDGGTKYNETFKGKATLTTDKSSSTAYMQLSRLTSEDSAVYFCARGGTSVIRDAMDYWGQGTSVTVSSASTTAPSVFPLAPSCGSTSGSTVALACLVSGYFPEPVTVSWNSGSLTSGVHTFPSVLQSSGLYSLSSMVTVPSSRWPSETFTCNVAHPASKTKVDKPVPKRENGRVPRPPDCPKCPAPEMLGGPSVFIFPPKPKDTLLIARTPEVTCVVVDLDPEDPEVQISWFVDGKQMQTAKTQPREEQFNGTYRVVSVLPIGHQDWLKGKQFTCKVNNKALPSPIERTISKARGQAHQPSVYVLPPSREELSKNTVSLTCLIKDFFPPDIDVEWQSNGQQEPESKYRTTPPQLDEDGSYFLYSKLSVDKSRWQRGDTFICAVMHEALHNHYTQESLSHSPGK
light: DIVLTQSPASLAVSLGQRATISCRASESVDNYGISFMHWYQQKPGQPPKLLIYRASNLESGIPARFSGSGSRTDFTLTINPVETDDVATYYCQQSNKDPLTFGAGTKLELKRNDAQPAVYLFQPSPDQLHTGSASVVCLLNSFYPKDINVKWKVDGVIQDTGIQESVTEQDKDSTYSLSSTLTMSSTEYLSHELYSCEITHKSLPSTLIKSFQRSEC
B5 was tested, and the Kd [2] was 0.000826 nM, the koff [2] was 6.55e-07 s⁻¹ and the kon [2] was 793000 M⁻¹ s⁻¹. For the same binder, the Kd [3] was 0.248 nM, the koff [3] was 0.000108 s⁻¹ and the kon [3] was 437000 M⁻¹ s⁻¹. For the same binder, the IC50, inhibition of feline IL-31-induced STAT3 phosphorylation, feline FCWF4 cells [1] was 1.15 µg/mL.

B6: ZIL1 (antibody, V domains shown)
VH: EVQLVESGGDLVKPGGSLRLSCVASGFTFSSYGMSWVRQAPGKGLQWVAHINSGGSSTYYADAVKGRFTISRDNAKNTLYLQMNSLRAEDTAVYYCVEVYTTLAAFWTDNFDYWGQGTLVTVSS
VL: QSVLTQPTSVSGSLGQRVTISCSGSTNNIGILAATWYQQLPGKAPKVLVYSDGNRPSGVPDRFSGSKSGNSATLTITGLQAEDEADYYCQSFDTTLDAYVFGSGTQLTVLR
B6 gave a Binding (ELISA OD) [4] of 0.92 OD and a Binding (ELISA OD) [5] of 1.89 OD.

B7: ZIL9 (antibody, V domains shown)
VH: EVQLVESGGDLVKPPGSLRLSCVASGFTFSSYDMTWVRQAPGKGLQWVADVNSGGTGTAYAVAVKGRFTISRDNAKKTLYLQMNSLRAEDTAVYYCAKLGVRDGLSVWGQGTLVTVSS
VL: SSVLTQPPSVSVSLGQTATISCSGESLNEYYTQWFQQKAGQAPVLVIYRDTERPSGIPDRFSGSSSGNTHTLTISGARAEDEADYYCESAVDTGTLVFGGGTHLAVLR
Binder B7 has a Binding (ELISA OD) [4] of 0.73 OD and a Binding (ELISA OD) [5] of 1.8 OD.

B8: ZIL69 (antibody, V domains shown)
VH: EVQLVESGGDLVKPAGSLRLSCVASGFTFSSYAMKWVRQAPGKGLQWVATINNDGTRTGYADAVRGRFTISKDNAKNTLYLQMDSLRADDTAVYYCTKGNAESGCTGDHCPPYWGQGTLVTVSS
VL: SSVLTQPPSVSVSLGQTATISCSGESLNKYYAQWFQQKAGQAPVLVIYKDTERPSGIPDRFSGSSAGNTHTLTISGARAEDEADYYCESAVSSETNVFGSGTQLTVLR
Binder B8 has a Binding (ELISA OD) [4] of 0.92 OD and a Binding (ELISA OD) [5] of 1.48 OD.

B9: ZIL94 (antibody, V domains shown)
VH: EVQLVDSGGDLVKPGGSLRLSCVASGFTFSTYFMSWVRQAPGRGLQWVALISSDGSGTYYADAVKGRFTISRDNAKNTLYLQMNSLRAEDTAMYYCAIFWRAFNDWGQGTLVTVSS
VL: QTVVIQEPSLSVSPGGTVTLTCGLNSGSVSTSNYPGWYQQTRGRTPRTIIYDTGSRPSGVPNRFSGSISGNKAALTITGAQPEDEADYYCSLYTDSDILVFGGGTHLTVLR
For B9, the Binding (ELISA OD) [4] was 1.3 OD and the Binding (ELISA OD) [5] was 1.67 OD.

B10: ZIL154 (antibody, V domains shown)
VH: EVHLVESGGDLVKPWGSLRLSCVASGFTFSDRGMSWVRQSPGKGLQWVAYIRYDGSRTDYADAVEGRFTISRDNAKNTLYLQMNSLRAEDTAVYYCARWDGSSFDYWGQGTLVTVSS
VL: DIVVTQTPLSLSVSPGETASFSCKASQSLLHSDGNTYLDWFRQKPGQSPQRLIYKVSNRDPGVPDRFSGSGSGTDFTLRISGVEADDAGLYYCMQAIHFPLTFGAGTKVELKR
B10 gave a Binding (ELISA OD) [4] of 1.38 OD and a Binding (ELISA OD) [5] of 1.62 OD.

B11: ZIL159 (antibody, V domains shown)
VH: EVQLVESGGDLVKPAGSLRLSCVASGFTFSSYVMTWVRQAPGKGLQWVAGINSEGSRTAYADAVKGRFTISRDNAKNTLYLQIDSLRAEDTAIYYCATGDIVATGTSYWGQGTLVTVSS
VL: SNVLTQPPSVSVSLGQTATISCSGETLNRFYTQWFQQKAGQAPVLVIYKDTERPSGIPDRFSGSSSGNIHTLTISGARAEDEAAYYCKSAVSIDVGVFGGGTHLTVFR
Work on B11 yielded a Binding (ELISA OD) [4] of 1.31 OD and a Binding (ELISA OD) [5] of 1.6 OD.

B12: ZIL171 (antibody, V domains shown)
VH: EVQLVESGGDLVKPAGSLRLSCVASGFTFRTYVMNWVRQAPGKGLQWVASINGGGSSPTYADAVRGRFTVSRDNAQNSLFLQMNSLRAEDTAIYFCVVSMVGPFDYWGHGTLVTVSS
VL: SSVLTQPPSVSVSLGQTATISCSGKSLSYYYAQWFQQKAGQAPVLVIYKDTERPSGIPDRFSGSSSGNTHTLTISGARAEDEADYYCESAVSSDTIVFGGGTHLTVLR
B12 was tested, and the Binding (ELISA OD) [4] was 0.93 OD and the Binding (ELISA OD) [5] was 1.42 OD.

B13: Feline 15H05 3.2 (antibody, V domains shown)
VH: QVLLVQSGAEVRKPGASVKIFCKASGYSFTSYTIHWLRQAPEQGLEWMGNINPTSGYTENNQRFKDRLTLTADTSTNTAYMELSSLRSADTAMYYCARWGFKYDGEWSFDVWGAGTTVTVSS
VL: EITMTQSPGSLAGSPGQQVTMNCRASQGISIWLSWYQQKPGQHPKLLIYKASNLHIGVPDRFSGSGSGTDFTLTISNLQAEDVASYYCLQSQTYPLTFGGGTKLEIK
B13 gave a Kd [2] of 0.204 nM, a koff [2] of 6.04e-06 s⁻¹ and a kon [2] of 29700 M⁻¹ s⁻¹. For the same binder, the Kd [3] was 12.6 nM, the koff [3] was 0.00166 s⁻¹ and the kon [3] was 132000 M⁻¹ s⁻¹.
